One may read the stoichiometry N as the number of molecules, sites or subunits per partner or assembly. A word on the Kd: it is the free concentration of one partner at which half of the binding sites on the other are occupied at equilibrium, for simple one-to-one binding. High values mean lower affinity, low ones higher affinity.

Here are results for 23 molecules from publication PMC10006238.

Where a chain is given by its changes, count along the chain named. Names and notes keep the numbering of the source.

Experiment [1] deals with VirD (Streptomyces virginiae). Description: SAXS; SEC-coupled SAXS (SWING beamline, Bio-SEC 100 Å column), 15 °C, 20 mM Tris-HCl pH 8.5, 300 mM NaCl, 5% glycerol, 50 μL at 5 mg/mL; curves compared with crystal structures or models (CRYSOL, SASREF).
In experiment [2] the target is VirC (Streptomyces virginiae). Briefly: other fluorescence titration; tryptophan fluorescence quenching; VirC, VirD, VirD mutant or VirE at 5 μM in TE buffer (20 mM Tris-HCl pH 8.5, 2 mM EDTA), 25 °C, titrated with ACP ligand (0–150 μM); excitation 295 nm; one site-specific binding model; averaged data of two independent measurements.
In experiment [3] the target is VirD (Streptomyces virginiae). The description is as above.
The target in experiment [4] is VirE (Streptomyces virginiae). The experiment is described as above.
Experiment [5] has as its target Se-VirD (Streptomyces virginiae). Briefly: crystal structure; Se-VirD alone, 20% PEG 400, 20% PEG 800, 100 mM Tris-HCl pH 7.5; space group P4(1)2(1)2; Se-SAD, 1.7 Å.
Experiment [6] shares this target. Description: crystal structure; holo-ACP5b–Se-VirD complex, hanging drop, ratio 1:4, 100 mM calcium chloride, 30% PEG 1500, 10% 2-propanol, 100 mM imidazole-HCl pH 6.5; space group H3; 2.1 Å.
Experiment [7] deals with VirE (Streptomyces virginiae). Description: SAXS; SEC-coupled SAXS (SWING beamline, Bio-SEC 100 Å column), 15 °C, 20 mM Tris-HCl pH 8.5, 300 mM NaCl, 5% glycerol, 50 μL at 5 mg/mL; curves compared with crystal structures or models (CRYSOL, SASREF).
For experiment [8], the target named is VirD E128Q (Streptomyces virginiae). Briefly: other fluorescence titration; tryptophan fluorescence quenching; VirC, VirD, VirD mutant or VirE at 5 μM in TE buffer (20 mM Tris-HCl pH 8.5, 2 mM EDTA), 25 °C, titrated with ACP ligand (0–150 μM); excitation 295 nm; one site-specific binding model; averaged data of two independent measurements.

On to VirD (enzyme), for which the stoichiometry N in experiment [1] stood at 3.

As to “holo-ACP5a-ACP5b didomain (domain or fragment)”, the Kd in experiment [2] is 17 µM; in experiment [3], 19 µM; in experiment [4], 42 µM.

Regarding Se-VirD (enzyme), the stoichiometry N in experiment [5] and in experiment [6] was 3 throughout.

The molecule VirE (enzyme) gave a stoichiometry N in experiment [7] of 3.

With holo-ACP7 (domain or fragment), the results for the Kd in experiment [2], in experiment [3] and in experiment [4] were 18 µM, 4.3 µM and 22 µM, respectively.

Turning to apo-Sna ACP7 (domain or fragment), the dissociation constant (Kd) in experiment [2] was found to be 78 µM; in experiment [3], 166 µM.

On to holo-Sna ACP7 (domain or fragment), for which the Kd in experiment [2] and in experiment [3] was 13 µM in each case.

In the case of apo-ACP7 (domain or fragment), the values for the Kd in experiment [2], in experiment [3] and in experiment [4] were 75 µM, 75 µM and 301 µM, respectively.

B1: apo-ACP5a (domain or fragment)
chain: GPGSAGRQEEIAEEVARLLAGVLYLEPDRLDPEETFLTLGVDSILGVEFVAAVNAAYPVGVKATALYDHPTPAAFARHIAESLGA
For the molecule B1, the Kd in experiment [2] was determined as 166 µM; in experiment [3], 102 µM; in experiment [4], 653 µM.

B2: acetoacetyl-ACP5a (domain or fragment)
chain: B1 chain
modifications: acetoacetyl form (acetoacetate as substrate mimic on the phosphopantetheine)
The molecule B2 came in with a Kd in experiment [2] of 40 µM.

B3: apo-ACP5a L6764N (domain or fragment)
chain: B1 chain with L37N
As to B3, the Kd in experiment [2] amounted to 89 µM; in experiment [3], 83 µM.

B4: HMG-ACP5a (domain or fragment)
chain: B1 chain
modifications: HMG form ((RS)-3-hydroxy-3-methylglutarate as substrate mimic on the phosphopantetheine)
Take B4: the Kd in experiment [3] was 51 µM.

B5: holo-ACP5a E6761A/L6764N (domain or fragment)
chain: B1 chain with E34A, L37N
modifications: phosphopantetheine (holo form)
As for B5, the Kd in experiment [2] amounted to 10 µM; in experiment [3], 7 µM.

B6: holo-ACP5a L6764N (domain or fragment)
chain: B1 chain with L37N
modifications: phosphopantetheine (holo form)
Take B6: the Kd in experiment [2] came out at 11 µM; in experiment [3] it was 4.1 µM.

B7: methylcrotonyl-ACP5a (domain or fragment)
chain: B1 chain
modifications: methylcrotonyl form (3-methylcrotonate as substrate mimic on the phosphopantetheine)
Molecule B7 displayed a Kd in experiment [4] of 287 µM.

B8: holo-ACP5a E6761A (domain or fragment)
chain: B1 chain with E34A
modifications: phosphopantetheine (holo form)
Take B8: the figures for the Kd in experiment [2] and in experiment [3] were 4.7 µM and 6.1 µM, respectively.

B9: apo-ACP5a E6761A (domain or fragment)
chain: B1 chain with E34A
For B9, the Kd in experiment [2] is 108 µM; in experiment [3] it was 186 µM.

B10: apo-ACP5a E6761A/L6764N (domain or fragment)
chain: B1 chain with E34A, L37N
Regarding B10, the dissociation constant Kd in experiment [2] came to 61 µM; in experiment [3], 117 µM.

B11: acetoacetyl-ACP5b (domain or fragment)
chain: GPGSAVAVDPAPVARALREELARTLYCEPGDIDDEASFNTLGLDSILGVEFVAFVNQTYGLDEKAGILYDHPSLAALSRHVAGRAAPV
modifications: acetoacetyl form (acetoacetate as substrate mimic on the phosphopantetheine)
In experiment [2], B11 yielded a dissociation constant (Kd) of 4.3 µM.

B12: HMG-ACP5b (domain or fragment)
chain: B11 chain
modifications: HMG form ((RS)-3-hydroxy-3-methylglutarate as substrate mimic on the phosphopantetheine)
For B12, the values for the equilibrium dissociation constant (Kd) in experiment [3] and in experiment [8] were 39 µM and 33 µM, respectively.

B13: holo-ACP5b (domain or fragment)
chain: B11 chain
modifications: phosphopantetheine (Ppant) on S6871
On to B13, for which the dissociation constant Kd in experiment [2] was 3.8 µM; in experiment [3], 2.9 µM; in experiment [4] it was 6.8 µM.

B14: methylcrotonyl-ACP5b (domain or fragment)
chain: B11 chain
modifications: methylcrotonyl form (3-methylcrotonate as substrate mimic on the phosphopantetheine)
Molecule B14 returned a Kd in experiment [4] of 30 µM.

B15: apo-ACP5b (domain or fragment)
chain: B11 chain
For B15, the results for the Kd in experiment [2], in experiment [3] and in experiment [4] were 77 µM, 178 µM and 171 µM, respectively.
